Here are results for 15 molecules from patent US20240092890A1 (JUNTENDO EDUCATIONAL FOUNDATION, published 2024).

Assay [1] concerns the target T1, Ins 5 type mutant CALR protein on UT-7/TPO CALR Ins 5 cells (UniProt P27797 18-417).
T1 sequence (looked up): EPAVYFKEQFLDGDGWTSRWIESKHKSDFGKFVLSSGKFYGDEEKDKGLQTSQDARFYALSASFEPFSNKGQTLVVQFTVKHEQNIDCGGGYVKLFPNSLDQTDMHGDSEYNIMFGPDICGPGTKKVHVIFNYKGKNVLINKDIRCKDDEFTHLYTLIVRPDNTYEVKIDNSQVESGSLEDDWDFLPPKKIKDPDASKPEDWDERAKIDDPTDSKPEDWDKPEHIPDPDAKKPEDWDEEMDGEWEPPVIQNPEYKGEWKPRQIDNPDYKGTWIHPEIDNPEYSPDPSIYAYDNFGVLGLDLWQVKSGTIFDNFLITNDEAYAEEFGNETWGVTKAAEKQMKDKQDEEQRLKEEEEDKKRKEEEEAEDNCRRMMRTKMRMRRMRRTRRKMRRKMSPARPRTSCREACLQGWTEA
Description: cell-based or functional assay.

Assay [2] addresses T2, protein having an Fc region and a His-tag added to the N-terminus of SEQ ID NO: 1.
T2 construct: also called mutant CALR protein (antigen of the BLItz measurement); not shown: Fc region and His-tag at the N-terminus
T2 chain: RRMMRTKMRMRRM
Description: BLItz biolayer interferometry, Fc/His-SEQ ID NO: 1 protein on the biosensor. As for the experimental part: As another method, measurements were performed using the molecular interaction analysis system BLItz (ForteBio), which applies biolayer interferometry […]. Specifically, a protein having an Fc region and a His-tag added to the N-terminus of SEQ ID NO: 1 was immobilized at a concentration of 0.1 mg/mL using the Anti-Penta-HIS or ProteinA biosensor (ForteBio). Subsequently, the antibodies 1 to 114 made were prepared at a concentration of 500, 100, and 50 nM and reacted to acquire the dissociation constant.

B1: Antibody 62 (bispecific antibody)
chain 1: not shown
chain 2: DIQMTQSPSFVSASVGDRVTITCLASEDIYSYLAWYQQKPGKAPKLLIFAANRLQDGVPSRFSGGGSGTGFTLTISSLQPEDFATYFCLQGSKFPYTFGQGTKLEINRTVAAPSVFIFPPSDEQLKSGTASVVCLLNNFYPREAKVQWKVDNALQSGNSQESVTEQDSKDSTYSLSSTLTLSKADYEKHKVYACEVTHQGLSSPVTKSFNRGEC
On to B1, for which the “EC50 of cytotoxic activity (pM)” value in assay [1] is 91 pM. Moreover, in assay [2], the Kd is under 1 pM.

B2: Antibody 56 (bispecific antibody)
chain 1: not shown
chain 2: DIQMTQSPSFVSASVGDRVTITCLASEDIYSYLAWYQQKPGKAPKLLIFAANRLQDGVPSRFSGGGSGTGFTLTISSLQPEDFATYFCLQGSKFPYTFGQGTKLEINRTVAAPSVFIFPPSDEQLKSGTASVVCLLNNFYPREAKVQWKVDNALQSGNSQESVTEQDSKDSTYSLSSTLTLSKADYEKHKVYACEVTHQGLSSPVTKSFNRGEC
Consider B2, for which the “EC50 of cytotoxic activity (pM)” value in assay [1] is 45 pM. In assay [2], this molecule gave a Kd of under 1 pM.

B3: Antibody 99 (bispecific antibody)
chain 1: not shown
chain 2: DIQMTQSPSSLSASVGDRVTITCLASEDIYSYLAWYQQKPGKAPKLLIFAANRLQDGVPSRFSGSGSGTDFTLTISSLQPEDFATYYCLQGSKFPYTFGPGTKVDIKRTVAAPSVFIFPPSDEQLKSGTASVVCLLNNFYPREAKVQWKVDNALQSGNSQESVTEQDSKDSTYSLSSTLTLSKADYEKHKVYACEVTHQGLSSPVTKSFNRGEC
With B3, in assay [2], the Kd was under 1 pM.

B4: Antibody 93 (bispecific antibody)
chain 1: not shown
chain 2: DIQMTQSPSSLSASVGDRVTITCLASEDIYSYLAWYQQKPGKAPKLLIFAANRLQSGVPSRFSGSGSGTDFTLTISSLQPEDFATYYCLQGSKFPYTFGPGTKVDIKRTVAAPSVFIFPPSDEQLKSGTASVVCLLNNFYPREAKVQWKVDNALQSGNSQESVTEQDSKDSTYSLSSTLTLSKADYEKHKVYACEVTHQGLSSPVTKSFNRGEC
B4: in assay [2], the Kd is under 1 pM.

B5: Antibody 96 (bispecific antibody)
chain 1: not shown
chain 2: DIQMTQSPSSLSASVGDRVTITCLASEDIYSYLAWYQQKPGKAPKLLIFAANRLQDGVPSRFSGSGSGTDFTLTISSLQPEDFATYYCLQGSKFPYTFGPGTKVDIKRTVAAPSVFIFPPSDEQLKSGTASVVCLLNNFYPREAKVQWKVDNALQSGNSQESVTEQDSKDSTYSLSSTLTLSKADYEKHKVYACEVTHQGLSSPVTKSFNRGEC
In assay [2], B5 gave a Kd of under 1 pM.

B6: Antibody 81 (bispecific antibody)
chain 1: not shown
chain 2: DIQMTQSPSSLSASVGDRVTITCLASEDIYSYLAWYQQKPGKAPKLLIFAANRLQDGVPSRFSGSGSGTDFTLTISSLQPEDFATYYCLQGSKFPYTFGPGTKVDIKRTVAAPSVFIFPPSDEQLKSGTASVVCLLNNFYPREAKVQWKVDNALQSGNSQESVTEQDSKDSTYSLSSTLTLSKADYEKHKVYACEVTHQGLSSPVTKSFNRGEC
Molecule B6 came in with a Kd in assay [2] of under 1 pM.

B7: Antibody 97 (bispecific antibody)
chain 1: not shown
chain 2: DIQMTQSPSSLSASVGDRVTITCLASEDIYSYLAWYQQKPGKAPKLLIFAANRLQDGVPSRFSGSGSGTDFTLTISSLQPEDFATYYCLQGSKFPYTFGPGTKVDIKRTVAAPSVFIFPPSDEQLKSGTASVVCLLNNFYPREAKVQWKVDNALQSGNSQESVTEQDSKDSTYSLSSTLTLSKADYEKHKVYACEVTHQGLSSPVTKSFNRGEC
B7: the equilibrium dissociation constant (Kd) in assay [2] is under 1 pM.

B8: Antibody 73 (bispecific antibody)
chain 1: not shown
chain 2: DIQMTQSPSFVSASVGDRVTITCLASEDIYSYLAWYQQKPGKAPKLLIFAANRLQSGVPSRFSGGGSGTGFTLTISSLQPEDFATYFCLQGSKFPYTFGQGTKLEINRTVAAPSVFIFPPSDEQLKSGTASVVCLLNNFYPREAKVQWKVDNALQSGNSQESVTEQDSKDSTYSLSSTLTLSKADYEKHKVYACEVTHQGLSSPVTKSFNRGEC
For B8, in assay [2], the Kd was under 1 pM.

B9: Antibody 95 (bispecific antibody)
chain 1: not shown
chain 2: DIQMTQSPSSLSASVGDRVTITCLASEDIYSYLAWYQQKPGKAPKLLIFAANRLQDGVPSRFSGSGSGTDFTLTISSLQPEDFATYYCLQGSKFPYTFGPGTKVDIKRTVAAPSVFIFPPSDEQLKSGTASVVCLLNNFYPREAKVQWKVDNALQSGNSQESVTEQDSKDSTYSLSSTLTLSKADYEKHKVYACEVTHQGLSSPVTKSFNRGEC
For the molecule B9, in assay [2], the Kd was under 1 pM.

B10: Antibody 87 (bispecific antibody)
chain 1: not shown
chain 2: DIQMTQSPSSLSASVGDRVTITCLASEDIYSYLAWYQQKPGKAPKLLIFAANRLQSGVPSRFSGSGSGTDFTLTISSLQPEDFATYYCLQGSKFPYTFGPGTKVDIKRTVAAPSVFIFPPSDEQLKSGTASVVCLLNNFYPREAKVQWKVDNALQSGNSQESVTEQDSKDSTYSLSSTLTLSKADYEKHKVYACEVTHQGLSSPVTKSFNRGEC
As to B10, the Kd in assay [2] was under 1 pM.

B11: Antibody 98 (bispecific antibody)
chain 1: not shown
chain 2: DIQMTQSPSSLSASVGDRVTITCLASEDIYSYLAWYQQKPGKAPKLLIFAANRLQDGVPSRFSGSGSGTDFTLTISSLQPEDFATYYCLQGSKFPYTFGPGTKVDIKRTVAAPSVFIFPPSDEQLKSGTASVVCLLNNFYPREAKVQWKVDNALQSGNSQESVTEQDSKDSTYSLSSTLTLSKADYEKHKVYACEVTHQGLSSPVTKSFNRGEC
As to B11, the Kd in assay [2] is under 1 pM.

B12: Antibody 79 (bispecific antibody)
chain 1: not shown
chain 2: DIQMTQSPSFVSASVGDRVTITCLASEDIYSYLAWYQQKPGKAPKLLIFAANRLQDGVPSRFSGGGSGTGFTLTISSLQPEDFATYFCLQGSKFPYTFGQGTKLEIKRTVAAPSVFIFPPSDEQLKSGTASVVCLLNNFYPREAKVQWKVDNALQSGNSQESVTEQDSKDSTYSLSSTLTLSKADYEKHKVYACEVTHQGLSSPVTKSFNRGEC
Turning to B12, the Kd in assay [2] is under 1 pM.

B13: Antibody 57 (bispecific antibody)
chain 1: not shown
chain 2: DIQMTQSPSFVSASVGDRVTITCLASEDIYSYLAWYQQKPGKAPKLLIFAANRLQDGVPSRFSGGGSGTGFTLTISSLQPEDFATYFCLQGSKFPYTFGQGTKLEINRTVAAPSVFIFPPSDEQLKSGTASVVCLLNNFYPREAKVQWKVDNALQSGNSQESVTEQDSKDSTYSLSSTLTLSKADYEKHKVYACEVTHQGLSSPVTKSFNRGEC
Turning to B13, in assay [1], the “EC50 of cytotoxic activity (pM)” value turned out to be 398 pM. The molecule also came in with a Kd in assay [2] of under 1 pM.

B14: Antibody 112 (bispecific antibody, human IgG1, kappa, L234A L235A)
chain 1: not shown
chain 2: DIQMTQSPSSLSASVGDRVTITCLASEDIYSYLAWYQQKPGKAPKLLIFAANRLQDGVPSRFSGSGSGTDFTLTISSLQPEDFATYYCLQGSKFPYTFGPGTKVDIKGGGGSGGGGSGGGGSQVQLVQSGAEVKKPGSSVKVSCKASGYTFTRNFIHWIRQAPGQGLEWIGWIFPGDADTEYNQKFSGRATITADKSTSTAYMELSSLRSEDTAVYYCARGNYNYEYFDYWGQGTMVTVSSDKTHTCPPCPAPEAAGGPSVFLFPPKPKDTLMISRTPEVTCVVVDVSHEDPEVKFNWYVDGVEVHNAKTKPREEQYNSTYRVVSVLTVLHQDWLNGKEYKCKVSNKALPAPIEKTISKAKGQPREPQVCTLPPSREEMTKNQVSLSCAVKGFYPSDIAVEWESNGQPENNYKTTPPVLDSDGSFFLVSKLTVDKSRWQQGNVFSCSVMHEALHNHYTQKSLSLSPGK
chain 3: DIQMTQSPSSLSASVGDRVTITCLASEDIYSYLAWYQQKPGKAPKLLIFAANRLQDGVPSRFSGSGSGTDFTLTISSLQPEDFATYYCLQGSKFPYTFGPGTKVDIKRTVAAPSVFIFPPSDEQLKSGTASVVCLLNNFYPREAKVQWKVDNALQSGNSQESVTEQDSKDSTYSLSSTLTLSKADYEKHKVYACEVTHQGLSSPVTKSFNRGECGGGGSGGGGSQVQLVQSGGGVVQPGRSLRLSCKASGYTFTRYTMHWVRQAPGKGLEWIGYINPSRGYTNYNQKVKDRFTISRDNSKNTAFLQMDSLRPEDTGVYFCARYYDDHYSLDYWGQGTPVTVSSGGGGSGGGGSGGGGSDIQMTQSPSSLSASVGDRVTITCSASSSVSYMNWYQQTPGKAPKRWIYDTSKLASGVPSRFSGSGSGTDYTFTISSLQPEDIATYYCQQWSSNPFTFGQGTKLQITR
B14: the Kd in assay [2] is under 1 pM.

B15: Antibody 113 (bispecific antibody, human IgG1, kappa, L234A L235A)
chain 1: not shown
chain 2: DIQMTQSPSSLSASVGDRVTITCLASEDIYSYLAWYQQKPGKAPKLLIFAANRLQDGVPSRFSGSGSGTDFTLTISSLQPEDFATYYCLQGSKFPYTFGPGTKVDIKGGGGSGGGGSGGGGSQVQLVQSGAEVKKPGSSVKVSCKASGYTFTRNFIHWIRQAPGQGLEWIGWIFPGDADTEYNQKFSGRATITADKSTSTAYMELSSLRSEDTAVYYCARGNYNYEYFDYWGQGTMVTVSSDKTHTCPPCPAPEAAGGPSVFLFPPKPKDTLMISRTPEVTCVVVDVSHEDPEVKFNWYVDGVEVHNAKTKPREEQYNSTYRVVSVLTVLHQDWLNGKEYKCKVSNKALPAPIEKTISKAKGQPREPQVCTLPPSREEMTKNQVSLSCAVKGFYPSDIAVEWESNGQPENNYKTTPPVLDSDGSFFLVSKLTVDKSRWQQGNVFSCSVMHEALHNHYTQKSLSLSPGK
chain 3: DIQMTQSPSSLSASVGDRVTITCLASEDIYSYLAWYQQKPGKAPKLLIFAANRLQSGVPSRFSGSGSGTDFTLTISSLQPEDFATYYCLQGSKFPYTFGPGTKVDIKRTVAAPSVFIFPPSDEQLKSGTASVVCLLNNFYPREAKVQWKVDNALQSGNSQESVTEQDSKDSTYSLSSTLTLSKADYEKHKVYACEVTHQGLSSPVTKSFNRGECGGGGSGGGGSQVQLVQSGGGVVQPGRSLRLSCKASGYTFTRYTMHWVRQAPGKGLEWIGYINPSRGYTNYNQKVKDRFTISRDNSKNTAFLQMDSLRPEDTGVYFCARYYDDHYSLDYWGQGTPVTVSSGGGGSGGGGSGGGGSDIQMTQSPSSLSASVGDRVTITCSASSSVSYMNWYQQTPGKAPKRWIYDTSKLASGVPSRFSGSGSGTDYTFTISSLQPEDIATYYCQQWSSNPFTFGQGTKLQITR
On to B15, for which, in assay [2], the Kd came to 32.4 pM.
